Sequences and labels used below:
B1: FAM9B (parent)
chain: EDLTAKRKRMKMDKTCSKTKNKSK
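Further: lentivirally expressed fusions sorted by FACS into six bins by GFP to DsRed ratio, PSI derived from sequencing read proportions per bin multiplied by bin number.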

In the data set the parent is B1. Briefly: protein stability index of a GFP-peptide fusion (GPS, HEK-293T) (PSI 1-6); higher = more stable. Particulars: c terminus: a fixed tail appended.
For EDLTAKRKRMKMDKTCSYTKNKSK [K18Y], the protein stability index came to 4.59.
Regarding EDLTAKRKRMKMDKTCSNTKNKSK [K18N], the protein stability index is 5.18.
The same measure for EDLTAKRKRMKMDKTCSDTKNKSK [K18D]: 5.07; for EDLTAKRKRMKMDKTCSRTKNKSK [K18R]: 4.81.
In the case of EDLTAKRKRMKMDKTCSLTKNKSK [K18L], the protein stability index amounted to 4.75.
The same measure for EDLTAKRKRMKMDKTCSTTKNKSK [K18T]: 4.89; for EDHTAKRKRMKMDKTCSKTKNKSK [L3H]: 5.43; for EDATAKRKRMKMDKTCSKTKNKSK [L3A]: 4.91.
With EDGTAKRKRMKMDKTCSKTKNKSK [L3G] the figure was 5.66; with EDLTASRKRMKMDKTCSKTKNKSK [K6S], 5.26; with EDLTAERKRMKMDKTCSKTKNKSK [K6E], 5.7.
Consider EDLTAGRKRMKMDKTCSKTKNKSK [K6G], for which the protein stability index was found to be 5.69.
The same measure for EDLTATRKRMKMDKTCSKTKNKSK [K6T]: 4.68; for EDLTAVRKRMKMDKTCSKTKNKSK [K6V]: 4.65; for EDLTAKRKRMKMVKTCSKTKNKSK [D13V]: 5.36.
The same measure for EDLTAKRKRMKMYKTCSKTKNKSK [D13Y]: 5.14; for EDLTAKRKRMKMAKTCSKTKNKSK [D13A]: 4.99.
The same measure for EDLTAKRKSMKMDKTCSKTKNKSK [R9S]: 5.47; for EDLTAKRKFMKMDKTCSKTKNKSK [R9F]: 5.14; for EDLTAKRKDMKMDKTCSKTKNKSK [R9D]: 5.64.
For EDLTAKRKTMKMDKTCSKTKNKSK [R9T], the protein stability index came out at 5.11.
As for EDLTAKRKVMKMDKTCSKTKNKSK [R9V], the protein stability index was 5.09.
With EDLTAKRKRMKMDKTCSKDKNKSK [T19D] the figure was 4.97.
EDLTAKRKRMKMDKTCSKHKNKSK [T19H]: the protein stability index is 5.02.
With EDLTAKRKRMKMDKTCSKAKNKSK [T19A] the figure was 5.16.
For the variant EDLTAKRKRMFMDKTCSKTKNKSK [K11F], the protein stability index turned out to be 5.02.
The same measure for EDLTAKRKRMQMDKTCSKTKNKSK [K11Q]: 5.02; for EDLTAKRKRMAMDKTCSKTKNKSK [K11A]: 5.04; for EDLTAKRKRMHMDKTCSKTKNKSK [K11H]: 5.38.
As for EDLTAKRKRMWMDKTCSKTKNKSK [K11W], the protein stability index came to 4.83.
Regarding EDLTAKRKRMSMDKTCSKTKNKSK [K11S], the protein stability index was determined as 4.79.
The same measure for EDLTAKRKRMKMDKTCSKTKNPSK [K22P]: 5.58; for EDLTAKRKRMKMDKTCSKTKNDSK [K22D]: 5.24.
As to EDLTAKRKRMKMDKTCSKTKNHSK [K22H], the protein stability index was 5.
On to DDLTAKRKRMKMDKTCSKTKNKSK [E1D], for which the protein stability index was found to be 5.32.
As to HDLTAKRKRMKMDKTCSKTKNKSK [E1H], the protein stability index stood at 4.87.
CDLTAKRKRMKMDKTCSKTKNKSK [E1C]: the protein stability index stood at 3.08.
Take EDLTAKRKRMKMDKTCSKTKPKSK [N21P]: the protein stability index is 4.94.
With EALTAKRKRMKMDKTCSKTKNKSK [D2A] the figure was 5.42; with EPLTAKRKRMKMDKTCSKTKNKSK [D2P], 5.51; with EILTAKRKRMKMDKTCSKTKNKSK [D2I], 4.16.
Take EMLTAKRKRMKMDKTCSKTKNKSK [D2M]: the protein stability index worked out at 4.44.
Take EDLTAKRKRMKMDVTCSKTKNKSK [K14V]: the protein stability index amounted to 5.07.
With EDLTAKRKRMKMDPTCSKTKNKSK [K14P] the figure was 5.37; with EDLTAKRKRMKMDTTCSKTKNKSK [K14T], 5.03.
The same measure for EDLTAKRKRMKMDRTCSKTKNKSK [K14R]: 5.37.
The same measure for EDLTAKRKRMKMDETCSKTKNKSK [K14E]: 5.07; for EDLTAKRKRMKMDCTCSKTKNKSK [K14C]: 4.41; for EDLTAKRKRMKMDATCSKTKNKSK [K14A]: 4.99.
Consider EDLTAKIKRMKMDKTCSKTKNKSK [R7I], for which the protein stability index is 4.82.
With EDLTAKPKRMKMDKTCSKTKNKSK [R7P] the figure was 5.27; with EDLTAKEKRMKMDKTCSKTKNKSK [R7E], 5.45.
With EDLTAKTKRMKMDKTCSKTKNKSK [R7T] the figure was 5.46; with EDLTAKCKRMKMDKTCSKTKNKSK [R7C], 5.26; with EDLTAKRKRMKMDKECSKTKNKSK [T15E], 5.2.
The same measure for EDLTAKRKRMKMDKVCSKTKNKSK [T15V]: 4.9; for EDLTAKRKRMKMDKKCSKTKNKSK [T15K]: 4.48; for EDLTAKRKRMKMDKWCSKTKNKSK [T15W]: 4.78.
Regarding EDLTAKRKRMKMDKTFSKTKNKSK [C16F], the protein stability index came out at 4.93.
Take EDLTAKRKRMKMDKTWSKTKNKSK [C16W]: the protein stability index came out at 5.08.
EDLTNKRKRMKMDKTCSKTKNKSK [A5N]: the protein stability index amounted to 4.33.
The same measure for EDLTKKRKRMKMDKTCSKTKNKSK [A5K]: 4.15; for EDLTYKRKRMKMDKTCSKTKNKSK [A5Y]: 5.13.
In the case of EDLTQKRKRMKMDKTCSKTKNKSK [A5Q], the protein stability index stood at 4.71.
For EDLTDKRKRMKMDKTCSKTKNKSK [A5D], the protein stability index came out at 5.08.
With EDLTSKRKRMKMDKTCSKTKNKSK [A5S] the figure was 5.5.
With EDLTFKRKRMKMDKTCSKTKNKSK [A5F] the figure was 4.42.
With EDLTAKRKRMKMDKTCGKTKNKSK [S17G] the figure was 5.02.
On to EDLTAKRKRMKMDKTCNKTKNKSK [S17N], for which the protein stability index was found to be 5.85.
With EDLTAKRKRMKMDKTCAKTKNKSK [S17A] the figure was 4.7; with EDLTAKRKRMKMDKTCYKTKNKSK [S17Y], 5.08; with EDLTAKRKRMKMDKTCFKTKNKSK [S17F], 4.24.
With EDLSAKRKRMKMDKTCSKTKNKSK [T4S] the figure was 4.74; with EDLGAKRKRMKMDKTCSKTKNKSK [T4G], 5.14; with EDLYAKRKRMKMDKTCSKTKNKSK [T4Y], 4.21.
With EDLTAKRKRMKMDKTCSKTNNKSK [K20N] the figure was 4.87; with EDLTAKRKRMKMDKTCSKTWNKSK [K20W], 4.47.
As for EDLTAKRKRMKMDKTCSKTGNKSK [K20G], the protein stability index is 5.06.
The same measure for EDLTAKRKRMKMDKTCSKTLNKSK [K20L]: 4.96; for EDLTAKRKRMKVDKTCSKTKNKSK [M12V]: 4.45; for EDLTAKRKRMKIDKTCSKTKNKSK [M12I]: 5.03.
The same measure for EDLTAKRKRMKCDKTCSKTKNKSK [M12C]: 5.06; for EDLTAKRKRMKMDKTCSKTKNKSE [K24E]: 5.11; for EDLTAKRKRNKMDKTCSKTKNKSK [M10N]: 4.23.
With EDLTAKRKRDKMDKTCSKTKNKSK [M10D] the figure was 5.29; with EDLTAKRKRAKMDKTCSKTKNKSK [M10A], 4.25.
Regarding EDLTAKRKRRKMDKTCSKTKNKSK [M10R], the protein stability index stood at 5.64.
With EDLTAKRKRMKMDKTCSKTKNKPK [S23P] the figure was 5.54; with EDLTAKRKRMKMDKTCSKTKNKTK [S23T], 5.31; with EDLTAKRKRMKMDKTCSKTKNKMK [S23M], 3.93.
The same measure for EDLTAKRKRMKMDKTCSKTKNKVK [S23V]: 5.27; for EDLTAKRYRMKMDKTCSKTKNKSK [K8Y]: 4.33.
The same measure for EDLTAKRNRMKMDKTCSKTKNKSK [K8N]: 5.53; for EDLTAKRLRMKMDKTCSKTKNKSK [K8L]: 4.38.
